Values joined by “and” are separate entries in the source; they are usually repeats but may differ in a detail not shown here. Identical values can stand only once.

Data set [1] has as its system tobacco (Nicotiana tabacum v. Xanthi) leaves. In words: Induction of HR in tobacco by hrpN truncated proteins. The format is in vivo. Conditions: for HR titer: large scale purified protein, concentration down to which HR is elicited in tobacco, — = no HR; for HR elicitation in tobacco (in words): Example 12. The procedure: A 1.5 ml aliquot from the 50 ml cultures grown for small scale purification of the truncated proteins was centrifuged at 14,000 rpm for four minutes and re-suspended in an equal volume of 5 mM potassium phosphate buffer, pH 6.8. The cell suspension was sonicated for ca. 30 seconds then diluted 1:2 and 1:10 with phosphate buffer. Both dilutions plus the neat cell lysate were infiltrated into the fourth to ninth leaves of 10-15 leaf tobacco plants by making a hole in single leaf panes and infiltrating the bacterial lysate into the intercellular leaf space using a syringe without a needle. The HR response was recorded 24-48 hr post infiltration. Tobacco (Nicotiana tabacum v. Xanthi) seedlings were grown in an environmental chamber at 20-25° C. with a photoperiod of 12-h light/12-h dark and ca. 40% RH. Cell lysate was used for the initial HR assays (in order to screen the truncated proteins for HR activity) as the small scale urea purification yielded very little protein which was denatured due to the purification process.
The full length positive control protein elicited HR down to only 5-7 μg/ml. […] This false HR was likely due to an affinity of the imidazole used in the purification process to bind to one or several of the background proteins, thereby not completely dialyzing out.

For data set [2], the system named is tomato (Lycopersicon spp. cv. Marglobe). In words: Induction of growth enhancement (GE/PGE), tomato seed soak. The settings on record: for PGE ht>buffer @20 μg/ml: tomato seeds soaked overnight at 20 μg/ml; for PGE ht>buffer @20 μg/ml / PGE ht>buffer @10 μg/ml / PGE ht>buffer @ 40 μg/ml: height vs buffer control; for PGE ht>buffer @20 μg/ml / PGE ht>buffer @10 μg/ml: >10% needed to pass; for PGE ht>buffer @10 μg/ml: tomato seeds soaked overnight at 10 μg/ml. The format is in vivo. As to the method:
Sixty tomato (Lycopersicon spp. cv. […] The next morning, the sixty seeds were sewn in three pots and 12-15 days later and again 18-20 days later the heights of the 10 tallest tomato plants per pot were measured and compared with the heights of the control plants treated only with phosphate buffer. Analyses were done on the heights to determine if there was a significant difference in the height of the plants treated with the truncated proteins compared with the buffer control, and thereby determine whether the proteins induced growth enhancement.

A further data set deals with TMV. In words: Induction of systemic acquired resistance (SAR), TMV lesions on tobacco. The class given is in vivo, Nicotiana tabacum. The settings on record: tobacco sprayed with 20 μg/ml, reduction in TMV lesions vs buffer control. As to the method: Three tobacco (Nicotiana tabacum cv. Xanthi) plants with 8-12 leaves (ca. 75 day old plants) were used in the assay. One leaf of the tobacco plants was covered up and the rest of the leaves were sprayed with ca. 50 ml of a 20 μg/ml solution of the truncated proteins diluted with 5 mM potassium phosphate buffer. Five to seven days later two leaves (the unsprayed leaf and the sprayed leaf opposite and just above the unsprayed leaf) were inoculated with 20 μl of a 1.8 μg/ml solution of TMV along with a pinch of diatomaceous earth by rubbing the mixture along the top surface of the leaves. The TMV entered the plants through tiny lesions made by the diatomaceous earth. Ca. 3-4 days post TMV inolucation, the number of TMV lesions was counted on both leaves compared with the number of lesions on the negative control buffer treated leaves. Analyses were done to determine the efficacy of reducing the number of TWV lesions by the protein fragents compared to the buffer control. Percentage of efficacy was calculated as: Reduction in TMV lesions (% efficacy)=100×(1−mean # of lesions on treated leaves/mean # of lesions on buffer control leaves).

In the case of `c1c[nH]cn1` [Imidazole], in data set [1] (imidazole at ca. 60 mM), the “false HR response” value is “did elicit a false HR response”.
As for “Fragment 20: amino acids 137-180 of SEQ ID NO: 23, smallest HR domain (STSQNDDSTSGTDSTSDSSDPMQQLLKMFSEIMQSLFGDGQDGT; listed as Erwinia amylovora)”, in data set [2], the “PGE ht>buffer @20 μg/ml” value is reported as 9%. The “Efficacy of TMV control” value with TMV (listed as 20) is 64% and 58%. The same molecule showed an HR titer in data set [1] of 16 µg/mL.

B1: Fragment 1: full length Erwinia amylovora hypersensitive response elicitor, amino acids 1-403 of SEQ ID NO: 23, pET28(b) clone, positive control (protein, listed as Erwinia amylovora)
chain: MSLNTSGLGASTMQISIGGAGGNNGLLGTSRQNAGLGGNSALGLGGGNQNDTVNQLAGLLTGMMMMMSMMGGGGLMGGGLGGGLGNGLGGSGGLGEGLSNALNDMLGGSLNTLGSKGGNNTTSTTNSPLDQALGINSTSQNDDSTSGTDSTSDSSDPMQQLLKMFSEIMQSLFGDGQDGTQGSSSGGKQPTEGEQNAYKKGVTDALSGLMGNGLSQLLGNGGLGGGQGGNAGTGLDGSSLGGKGLQNLSGPVDYQQLGNAVGTGIGMKAGIQALNDIGTHRHSSTRSFVNKGDRAMAKEIGQFMDQYPEVFGKPQYQKGPGQEVKTDDKSWAKALSKPDDDGMTPASMEQFNKAKGMIKRPMAGDTGNGNLQARGAGGSSLGIDAMMAGDAINNMALGKLGAA
In the case of B1, in data set [2], the “PGE ht>buffer @10 μg/ml” value was 12% and the “PGE ht>buffer @20 μg/ml” value came out at 11%. In addition, in the data set on TMV (listed as 1 (+control)), the “Efficacy of TMV control” value is 84% and 72%. The HR titer in data set [1] lay within 5 to 7 µg/mL.

B2: Fragment 10: amino acids 1-168 of SEQ ID NO: 23, N-terminal fragment (protein, listed as Erwinia amylovora)
chain: MSLNTSGLGASTMQISIGGAGGNNGLLGTSRQNAGLGGNSALGLGGGNQNDTVNQLAGLLTGMMMMMSMMGGGGLMGGGLGGGLGNGLGGSGGLGEGLSNALNDMLGGSLNTLGSKGGNNTTSTTNSPLDQALGINSTSQNDDSTSGTDSTSDSSDPMQQLLKMFSEI
Take B2: in data set [2], the “PGE ht>buffer @10 μg/ml” value came out at 13% and the “PGE ht>buffer @20 μg/ml” value stood at 5%. Besides, the “Efficacy of TMV control” value with TMV worked out at 69%. This molecule showed an HR titer in data set [1] of 1 µg/mL.

B3: Fragment 17: amino acids 105-168 of SEQ ID NO: 23, internal fragment (protein, listed as Erwinia amylovora)
chain: MLGGSLNTLGSKGGNNTTSTTNSPLDQALGINSTSQNDDSTSGTDSTSDSSDPMQQLLKMFSEI
Consider B3, for which, in data set [2], the “PGE ht>buffer @10 μg/ml” value amounted to 19% and the “PGE ht>buffer @20 μg/ml” value came to 16%. The “Efficacy of TMV control” value in the data set with TMV is listed as 89%. The “HR elicitation in tobacco (in words)” value in data set [1] is “lost its HR activity”.

B4: Fragment 6: amino acids 267-403 of SEQ ID NO: 23, C-terminal fragment (protein, listed as Erwinia amylovora)
chain: MKAGIQALNDIGTHRHSSTRSFVNKGDRAMAKEIGQFMDQYPEVFGKPQYQKGPGQEVKTDDKSWAKALSKPDDDGMTPASMEQFNKAKGMIKRPMAGDTGNGNLQARGAGGSSLGIDAMMAGDAINNMALGKLGAA
For B4, in data set [2], the “PGE ht>buffer @ 40 μg/ml” value worked out at 23% @ 40 μg/ml, the “PGE ht>buffer @10 μg/ml” value is recorded as 21% and the “PGE ht>buffer @20 μg/ml” value came out at 21%. In addition, in the data set with TMV (listed as 6), the “Efficacy of TMV control” value is 70% and 72%.

B5: Fragment 9: amino acids 1-104 of SEQ ID NO: 23, N-terminal fragment (protein, listed as Erwinia amylovora)
chain: MSLNTSGLGASTMQISIGGAGGNNGLLGTSRQNAGLGGNSALGLGGGNQNDTVNQLAGLLTGMMMMMSMMGGGGLMGGGLGGGLGNGLGGSGGLGEGLSNALND
As to B5, in data set [2], the “PGE ht>buffer @10 μg/ml” value is 4% and the “PGE ht>buffer @20 μg/ml” value worked out at 8%. Moreover, the “Efficacy of TMV control” value with TMV is reported as 82%. For the same molecule, the HR titer in data set [1] is 3 µg/mL.

B6: Fragment 15: amino acids 105-209 of SEQ ID NO: 23, internal fragment (protein, listed as Erwinia amylovora)
chain: MLGGSLNTLGSKGGNNTTSTTNSPLDQALGINSTSQNDDSTSGTDSTSDSSDPMQQLLKMFSEIMQSLFGDGQDGTQGSSSGGKQPTEGEQNAYKKGVTDALSGL
Turning to B6, in data set [2], the “PGE ht>buffer @10 μg/ml” value was 14% and the “PGE ht>buffer @20 μg/ml” value was 19%. Besides, in the data set with TMV (listed as 15), the “Efficacy of TMV control” value was 57% and 67%. Besides, the HR titer in data set [1] was in the range of 5 to 10 µg/mL.

B7: Fragment 5: amino acids 210-403 of SEQ ID NO: 23, C-terminal fragment (protein, listed as Erwinia amylovora)
chain: MGNGLSQLLGNGGLGGGQGGNAGTGLDGSSLGGKGLQNLSGPVDYQQLGNAVGTGIGMKAGIQALNDIGTHRHSSTRSFVNKGDRAMAKEIGQFMDQYPEVFGKPQYQKGPGQEVKTDDKSWAKALSKPDDDGMTPASMEQFNKAKGMIKRPMAGDTGNGNLQARGAGGSSLGIDAMMAGDAINNMALGKLGAA
With B7, in data set [2], the “PGE ht>buffer @ 40 μg/ml” value worked out at 16% @ 40 μg/ml, the “PGE ht>buffer @10 μg/ml” value is recorded as 13% and the “PGE ht>buffer @20 μg/ml” value was found to be 14%. In addition, in the data set with TMV (listed as 5), the “Efficacy of TMV control” value is 77% and 78%. In addition, the “HR elicitation in tobacco (in words)” value in data set [1] is reported as “did not elicit HR at a detectable level”.

B8: Fragment 7: amino acids 343-403 of SEQ ID NO: 23, smallest C-terminal protein (protein, listed as Erwinia amylovora)
chain: MTPASMEQFNKAKGMIKRPMAGDTGNGNLQARGAGGSSLGIDAMMAGDAINNMALGKLGAA
Consider B8, for which, in data set [2], the “PGE ht>buffer @10 μg/ml” value is given as 7% and the “PGE ht>buffer @20 μg/ml” value came to 7%.

B9: Fragment 14: amino acids 76-168 of SEQ ID NO: 23, internal fragment (protein, listed as Erwinia amylovora)
chain: MGGGLGGGLGNGLGGSGGLGEGLSNALNDMLGGSLNTLGSKGGNNTTSTTNSPLDQALGINSTSQNDDSTSGTDSTSDSSDPMQQLLKMFSEI
Regarding B9, in data set [2], the “PGE ht>buffer @10 μg/ml” value is 18% and the “PGE ht>buffer @20 μg/ml” value was 20%. Also, the “Efficacy of TMV control” value with TMV (listed as 14) is 83% and 87%. In addition, the “HR elicitation in tobacco (in words)” value in data set [1] was “lost its HR activity”.

B10: Fragment 13: amino acids 76-209 of SEQ ID NO: 23, internal fragment (protein, listed as Erwinia amylovora)
chain: MGGGLGGGLGNGLGGSGGLGEGLSNALNDMLGGSLNTLGSKGGNNTTSTTNSPLDQALGINSTSQNDDSTSGTDSTSDSSDPMQQLLKMFSEIMQSLFGDGQDGTQGSSSGGKQPTEGEQNAYKKGVTDALSGL
For B10, in data set [2] (concentration figure missing in the cell), the “PGE ht>buffer @ μg/ml” value is reported as 18% @ μg/ml. Also, in data set [2], the “PGE ht>buffer @10 μg/ml” value amounted to 7% and the “PGE ht>buffer @20 μg/ml” value is given as 4%. Moreover, the “enhanced growth at 60 μg/ml” value in data set [2] (tomato, 60 μg/ml) was determined as 18%. Further, the “Efficacy of TMV control” value in the data set with TMV (listed as 13) is 44% and 84%. In addition, in data set [1], the HR titer came out at 5 µg/mL.

B11: Fragment 4: amino acids 169-403 of SEQ ID NO: 23, C-terminal fragment (protein, listed as Erwinia amylovora)
chain: MQSLFGDGQDGTQGSSSGGKQPTEGEQNAYKKGVTDALSGLMGNGLSQLLGNGGLGGGQGGNAGTGLDGSSLGGKGLQNLSGPVDYQQLGNAVGTGIGMKAGIQALNDIGTHRHSSTRSFVNKGDRAMAKEIGQFMDQYPEVFGKPQYQKGPGQEVKTDDKSWAKALSKPDDDGMTPASMEQFNKAKGMIKRPMAGDTGNGNLQARGAGGSSLGIDAMMAGDAINNMALGKLGAA
Regarding B11, in data set [2], the “PGE ht>buffer @10 μg/ml” value was determined as 9% and the “PGE ht>buffer @20 μg/ml” value was 12%. Besides, in the data set on TMV (listed as 4), the “Efficacy of TMV control” value was 64% and 79%. Besides, the “HR elicitation in tobacco (in words)” value in data set [1] is “did not elicit HR”.

Values taken from patent US6858707B1, “Hypersensitive response elicitor fragments which are active but do not elicit a hypersensitive response” (EDEN Bioscience Corporation, priority 1998, dated 2005).
